# In the DeepSol protein solubility set:
# Test: soluble on expression in E. coli; label from the status in PepcDB or PDB records
row,Sequence,soluble on expression in E. coli
1,MIYIIGSGIAGLSAGVALRRAGKKVTLISKRIDGGSTPIAKGGVAASVGSDDSPELHAQDTIRVGDGLCDVKTVNYVTSEAKNVIETFESWGFEFEEDLRLEGGHTKRRVLHRTDETGREIFNFLLKLAREEGIPIIEDRLVEIRVKDGKVTGFVTEKRGLVEDVDKLVLATGGYSYLYEYSSTQSTNIGDGMAIAFKAGTILADMEFVQFHPTVTSLDGEVFLLTETLRGEGAQIINENGERFLFNYDKRGELAPRDILSRAIYIEMLKGHKVFIDLSKIEDFERKFPVVAKYLARHGHNYKVKIPIFPAAHFVDGGIRVNIRGESNIVNLYAIGEVSDSGLHGANRLASNSLLEGLVFGINLPRYVDSSWEGISTDDGIVHSVRISGNKTLSLKEIRRINWENVGIIRNEEKLVKAINTYSSSTQNEAIISYLTALAAEIRKESRGNHFREDYPYKDPNWEKRIYFKLVV,soluble
2,MIYKACIRKRCGGVCVGEELKPEKIQEIRLGDCPICGGKGTLKAIQFIHRIPYFGEVMESTVVCERCGYRNSDVIILEEREPRLYEVKVEEEKDLFIRVVRSKSGTIELEELGIKIEPGPAAEGFVSNIEGVLERAKEVLLMARDFKEQENDREAVRRIDELLKYIEEVKEGKKPLTVRIMDPFGNSALIGEKVKSRKLTKEEIRKLSKGPYIVIEPDEVPQQLEHHHHHH,not soluble
3,MIYSIPFLFFIIVSCSNSSTEMVAKSKYDAKIAEYKELNEQQAAVIEDNLEKSKIINNVVTELNQIAGNTHSLRVNVEHGVGELSQAEEINQKLQTLKKRLSAVEGKRSDGSKNLLATMDKLKSIIEQKEIEINNLKQEIANQQQTIANQKNTIASQQVTIDAQSQELMNKQQEMWYKLGTELHSVVEELPKVKGRKDKRNIKNTRYYILNKAKECFEHAAQLGHSLAGSKARQVEGEMSRL,not soluble
4,MKAASYGVPFQSHFGLISTIRGNDGLPRVVVFFQSHFGLISTVKIVEVLEKDEALSIPFWSDFNCHLQMDQRIRLAFFQSHFGLISTGTLQTSGTNANFLSIPFWSDFNLELLKRIKKTKMLFQSHFGLISTRNMVWGRSELQRAIFQSHFGLISTQSSQLTMPVKMQTFNPILV,not soluble
5,MKADIARCAYMHAHGGFYFDTDYKLLRPLDAQVLSQHCVLPVEEGAPGQEDFKIGNAVFGSEPGHPFWRAFIEHIFTAHAPETLQDHREIPMISGPRGLTRFYNAHGGQFADILFPPRDAFHPDRTWFGLGHRGGKSAVGSHLCWASWRGKSPRRALTNYLRRKLNAVPILEHHHHHH,not soluble
6,MKAEYLQRFGGIARLYGQSALRSFSQAKVCVVGIGGVGSWAAEALARAGINQITLIDMDDICITNTNRQIHAMQGTVGRLKTEVMAERIRAINPDCEVIEVDDFVTADNLAEHIKREFDYVVDAIDSVKAKVALIAFCKRNKIPVIVAGGAGGQMDPTQITVADLAKTIQDPLAAKVRSDLRRLHNFSKNPARKFGVECVFSTEQLSYPDGNGGTCQAKAASDGNMKMDCASGFGAVTPVTATFGLVAASRVLKKIAERGARAEKEAGNEEAGSIGEA,soluble
7,MKAFSSYDEKPPAPPIRFSSSATRENQVVGLKPLPKEPEATKKKKTMPNPFMKKNKDKKEASEKPVISRPSNFEHTIHVGYDPKTGEFTGMPEAWARLLTDSQISKQEQQQNPQAVLDALKYYTQGESSGQKWLQYDMNDAPSRTPSYGLKPQPYSTSSLPYHGNKIQDPRKMNPMTTSTSSAGYNSKQGVPPTTFSVNENRSSMPPSYAPPPVPHGETPADIVPPAIPDRPARTLSIYTKPKEEEEKIPDLSKGQFGVQARGQKAKKKMTDAEVLTKLRTIVSIGNPDRKYRKVDKIGSGASGSVYTAIEISTEAEVAIKQMNLKDQPKKELIINEILVMRENKHANIVNYLDSYLVCDELWVVMEYLAGGSLTDVVTECQMEDGIIAAVCREVLQALEFLHSRHVIHRDIKSDNILLGMDGSVKLTDFGFCAQLSPEQRKRTTMVGTPYWMAPEVVTRKQYGPKVDVWSLGIMAIEMVEGEPPYLNENPLRAIYLIATNGKPDFPGRDSMTLLFKDFVDSALEVQVENRWSASQLLTHPFLRCAKPLASLYYLIVAAKKSIAEASNS,not soluble
8,MKAIVTLNTTGAQLSVPASSRNLLETLEYHQVPVEYQCRSGYCGSCRMRLLKGEVCYLQQPLAFIQAGEILPCCCQPKGNIEIEF,not soluble
9,MKANANAFYAINGNSVIDFKESSKAKDVCEFLGRIKEENEYDPIVVLDNSKTHHADITIKKAKQLDITLVFLPPYSPDLNPIEFIWKSVRKEILKEFIESVTQLRDLIKNEYMKLAKSKSFANNWMKIFDEQIKSVMNSLEHHHHHH,not soluble
10,MKAYLHVASGKTFSGELAAPLEEKVSGEIVFFTGMTGYQEVLTDPSYKNQIIVFTYPLIGNYGINENDFESKRPHVEAVVVYEASREGFHYGAKYSLAEYLQHWNIPLLTHVDTRALVKEIRTAGTMMAELSLSPISAVGGEEAVFPVRAVSTKTIETYGEGGPHLVLVDFGYKKSILQSLLARGCRVTVVPHDTTPEAIDALKPDGLVLSNGPGDPKQLRHQLPAIRQLIDRYPTLAICLGHQLVALAYGADTEKLRFGHRGANQPVWDAVKQNVMMTSQNHSYVVKEGSLVGKPFDIRFINVNDGSVEGIVHRHKPILSVQYHPEAHPGPHDTGYIFDEFLQTVFKGENVYA,soluble
11,MKAYQRYRFPSLRSVARDASARDSAALAAEAQCADIDARIEEGFRQGREDGYRDGFEHGEAEGMKQGREAGFAAGAQQARDALRSEYAGIAKTLDAMRDAFVRVQAEYLAARRTELVDVVAKVAKQVIRCELTLQPSQMAALIEETLGTMPASSDAPEVHLSPDDHERLAGLLPERARHWRLVPDARLEAGECRVLLGGNEADAGCQHRLDACVERIGEQLPGAPDVEAAAT,not soluble
12,MKDESERVSNRLPMDESREHLMVKVARMTYQQELNQSEIAAETGLNRWQVSRLLQEARDLGIVRIEIIPRSPRRPDLETALQQTFNLNDSVVVSSDGEQAQSLDTVAQAAGQYIASIKSNGATVGVSWGRTMGAVAHWLPLQWSDGGEVVQINGTVAPISGVTYHNDVAGIFARKAGARLVPLPVPAIVGQRVTREVLERDRIVADVLTKARSAQILIFSCGSLSEESVLVRSGNILRDELATLLSKGAVGDVLGRFIDVNGEIVDAELDARTIGLSLSDLKTSGKAIGIAAGSEKFNVVLGVLRAGLVNVLVTDEATATFALEHA,not soluble
13,MKDFLRLELPVLPLRNTVVLPHTTTGVDVGRLKSKRAVEEALSADRLLFLVTQKDPEVDDPAPEDLYAVGTLAVVKQAMRLPDGTLQVMVEARSRARLLSYVAAPYLRAVGEAIPEPPLKDPELARVLVNEVQEAFERYLQNHKTLRLDRYQQEAVKSTRDPAILADLVAHHATWTLEEKQTILETPEVEERLKRVLALLLRDLERFELDKKIAARVKEQMDQNQREYYLREQMKAIQKELGGGEDFLTEIEELRERIEKKGMPEPVKEKALKELKRLERMQPGSPEATVSRTYLDWLLEVPWTEADPEVLDISVTKRVLDEDHYGLKEVKERILEYLAVRQLTQGKEVKGHAPILCFVGPPGVGKTSLGKSIARSMNRRFHRISLGGVRDEAEIRGHRRTYIGALPGKIIQGMKQVGVVNPVFLLDEIDKLSSDWRGDPAAALLEVLDPEQNHTFTDHYLDVPYDLSKVFFITTANTLSTIPRPLLDRMEVIEIPGYTLHEKRAIARYFRWPFQVKEAGLEGRLEITDRAIERIVQEYTREAGVRNLDRELSKVARKAAKDYLEKPWEGVRVVDAEDLEAYLGVPKYRPDRAEKEPQVGAAQGLAWTPYGGTLLTIEAVAVPGTGKVNLTGNLGEVMKESDHAVLTYLRVHREEWGLPEGFHKDYDLHIHVPEGATPKDGPSAGITIATALASALTGRPVRMDIAMTGEITLRGRVLPIGGVKEKLLAAHQAGIHRVILPKENAAELKEVPEEILKDLEIHFVEEVGEVLKLLLLPPPPPPAVQPDRPQPGVGA,soluble
14,MKDNEIISLFELRDEHAIEALSDKYHPYCYKIAWNLLTNKEDSEECLNDTWFSVWSLIPPKKPSVLSHFCGRITRNLSIDRLRKKYADRRPDLHMADVLGEMDHLSVTYTIEDQLAEKELLEIINDFLGKMNAEDRDIFVRRYWFFDSIAAIAKRHAMSVGSVKMNLYRSRKKLLKVLKKEGKHL,not soluble
15,MKDQGRSPRKRTGGRRRPNHKKKKHELGKDTVETQVGEQRLKTVDSRGNTQKVRAVKTDVASIADGAETIEATIENVVENPSNPNYARRNIITKGAILETSEGQARVTSRPGQHGQVNAVLVEAAALEHHHHHH,soluble
16,MKEIELKLKGEINRLTNKTFKFDERVGEGWFSAVYFLKTREIIEEFRPKSVVTMQFFQKENAVLCGTDEVIALLQTFAKNPEELEINSLKDGDKISPFETVLTIDGPYENFGFLEGVIDGILARRTSVATNVYNVVQAARSVDKEKPVIFMGDRDDHYTQQAGDGYAAYIGGMSAQATHAMNEWWGKSGMGTMPHALIQMFNGDVVEAAKAYHKKFPEDELVVLIDYNNDVITDALRVAREFGSTLKGVRVDTSRTMIDQYFIRHPEVLGTFDPRGVNPSLVFALRKALDEEGFQHVDIVVTGGFDEKRIREFEAQNVPVDIYGVGSSLLKMNIGFTGDNVELNGKPEAKAGRKYRPNPRLERVQLEKREDM,not soluble
17,MKEKIPFYNEKEFHDMVKKTKKGTFSGWYIINKNNNSVEFSGSFNRQFKLNKPVIPVNTEYVTRKEFNEYKDSNDQRLTKIETELKSQGQRIQVVEDKVDRLTEVVMVQSQQIKTQGEAMNARMDRFESLVLKSLESIGNTLTDFGKRLDVIETRLDKIDPPK,soluble
18,MKELRVKNQYEKHKEVEAAQGVKILGKDLEKTLAGLPLLVAYKDDEIPVLKDELIHELKQTLNAIKLEEKGVYVQASTLGSLEALLEFLKTSEVPYAGINIGPVHKKDVMKASVMLEHDPQYAVILAFDVRIERDAQEMADSLGVRIFSAEIIYHLFDAFTKYRQDYKKQKQEEFKHIAVFPCKMKILPQYIFNSRDPIVIGVTVEAGQVKQGTPMCVPSKNFVDIGIVTSIEINHKQVDVAKKGQEVCVKIEPIPGESPKMFGRHFEATDILVSKISRQSIDALKDWFRDEMQKSDWQLIVELKKVFEII,soluble
19,MKELTNEELRGIQLEQLKYIDRICRENGIEYTLAGGSLIGAIRHGGYIPWDDDIDIELTRPHYDHLISVLMDQLPNEKYALLHYKVRETYLPFAKLYDTRTSFTSKIDNLNRGTGVFLDIFPMDILPDNEEERQVFKKEFLKKAIQLTASNPHGLDFASSSKKIYFWGKLVLWMPQHIRFYGKYRILAEKLDEFMQKYRNSDNQLISYLYTGYKKAIFPKEIWEEYEDVKFEGLTARKLKNHEEYLTRQYGDYMKLEHHHHHH,not soluble
20,MKETDLRVIKTKKALSSSLLQLLEQQLFQTITVNQICDNALVHRTTFYKHFYDKYDLLEYLFNQLTKDYFARDISDRLNHPFQTMSDTINNKEDLREIAEFQEEDAEFNKVLKNVCIKIMHNDIKNNRDRIDIDSDIPDNLIFYIYDSLIEGFIHWIKDEKIDWPGEDIDNIFHRLINIKIK,soluble
21,MKEYNYIFGPIPSRRMGNSLGISSIEKRSCTYSCVYCQLGRTKNLMKEPKKFFKTEDILEEFKEYLKEDVDIDVVTVVGEGEPTLSDDLEELILGLKAITDKPVAVITNGSMLVYEKVRKALKAADIVLPSLDAGDEETFRKINRPNAKIDFNKITEALVQFSKEYNGELWMETMIVKGFNDKTEELYAIRKILDRIDYDRLYINTPVRPPAESYVEEPSKEKLDEVIRILRGTSIQMLSSGTFFSEITDDFEAIKSIISRHPMNKFEVESFLNSRKCRDKEEVLRKLKNHADIDVVSYKNYTTYRLK,not soluble
